The results in this text go back to article PMC7595633 (PLoS Neglected Tropical Diseases, 2020).

Values joined by “and” are separate entries in the source; they are usually repeats but may differ in a detail not shown here. Equal values may be shown once.

Series [1] deals with the molecule itself. Description: native gel or EMSA; PhastGel gradient 8-25%, room temperature; 1 mg/mL (methods), 2 mg/mL (legend of Fig 1D); Coomassie stained. (In general: Mobility shift assays separate free from complexed probe on a gel.)
Series [2] deals with the molecule itself. Description: AUC; sedimentation equilibrium; tetramer to dimers; 0.5, 0.75 and 1.0 mg/mL; 8,000, 10,000 and 12,000 rpm, 4°C; global fit in SEDPHAT.
For series [3], the target named is T1, Trypanosoma brucei selenocysteine lyase (TbSCLY), recombinant (Trypanosoma brucei, UniProt Q38DC4 1-451, pyridoxal-phosphate (PLP) bound to the active site).
T1 chain: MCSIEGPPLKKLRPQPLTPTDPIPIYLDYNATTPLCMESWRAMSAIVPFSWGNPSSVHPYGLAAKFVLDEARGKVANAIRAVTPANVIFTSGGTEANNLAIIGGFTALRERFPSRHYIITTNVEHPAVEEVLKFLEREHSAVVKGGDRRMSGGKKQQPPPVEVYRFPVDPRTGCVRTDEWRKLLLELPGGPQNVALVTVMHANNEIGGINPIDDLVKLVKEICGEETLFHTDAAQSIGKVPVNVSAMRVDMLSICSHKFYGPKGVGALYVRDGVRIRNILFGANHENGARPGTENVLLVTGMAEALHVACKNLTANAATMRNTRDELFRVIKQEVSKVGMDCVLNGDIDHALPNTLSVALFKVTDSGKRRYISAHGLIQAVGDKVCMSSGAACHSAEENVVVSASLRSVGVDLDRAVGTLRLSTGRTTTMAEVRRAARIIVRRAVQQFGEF
Description: ITC. (In general: ITC needs no label: the signal is the heat of the interaction.)

B1: Leishmania major selenophosphate synthetase (LmSEPHS2), recombinant full-length (enzyme, UniProt Q4Q0M0 1-398, looked up)
chain: MSHKRPQSSAGESNGAVDLKTPRFDPVSLGLPAEFQLTDYTRLKGCSCKLPQPKLLALLQELSATPGQKDVGMDCSIVPLHHTNSKGEALFLVSTTDFFFPSVSDPFLQGQIGAANVLSDLYSMGIPDCDTMLMLLAASTEMDEHERLITTREIMKGFAERARLATTTVTGGQTVMNPWPLIGGVAMAVVSEAEMVRPTGLLCAGDILVLTKPLGCQVAVNLKQWLLRPSPLYEEAIAGHISPEEIEELYNMATDSMRRLNREGARLMRKHGAHGATDVTGFGILGHANNFGAAQAVGDAPRSLCLVLERLPMFKTAVAASKQMNDKYRLLEGYSAETSGGLLVAFPSTTAAAAFCAELTAVDGGCPSWIVGHVEDRATNAVDGVYARLKDGYEIVEV
notes: selenophosphate synthetase SEPHS2 of Leishmania major, LmjF.36.5410; also called LmSEPSH2
As to B1, the “stoichiometry N” value in series [1] is 2 and 4. For the same molecule, in series [2], the affinity, expressed as Kd, was 178 ± 10 µM.

B2: ΔN(70)-TbSEPHS2, residues 71-393 (domain or fragment, Trypanosoma brucei, UniProt Q38A34 71-393, looked up)
chain: CSIVKLQHKDETGKPLYMVSTTDFFFPSVEDPYLQGQIGAANVLSDLYSTGIDRCDTVLMLLAASTDMDKTEREVCTQEMMKGFVDHVRLAGSDVTGGQTVMNPWPLIGGIATSVVAESQMIRPTGLQPGDILVLTKPLGCQIAVNLKQWLRRPSPIFEEQIQGKMDSEEIEELYNAAADGMKRLNRMAAALMHSHGAHGATDVTGFGILGHAKNLGSAQKADVCLVLDSLPMYRGAVKASKLMGDKYRLFEGYAAETSGGLLVAFGTREEAEGYIRELYETDGEPAWVVGRVVRREGSAPYALLQKDYKIIEVGAKVNDKII
notes: selenophosphate synthetase SEPHS2 of Trypanosoma brucei, Tb927.10.9410, residues 71-393; Cloned into pET20b with the printed oligonucleotides; also called ΔN(70)-SEPHS2
For B2, the “stoichiometry N” value in series [1] is 2 and 4.

B3: ΔN(69)-LmSEPHS2, N-terminally truncated L. major selenophosphate synthetase (domain or fragment, Leishmania major, UniProt Q4Q0M0 70-398, looked up)
chain: DVGMDCSIVPLHHTNSKGEALFLVSTTDFFFPSVSDPFLQGQIGAANVLSDLYSMGIPDCDTMLMLLAASTEMDEHERLITTREIMKGFAERARLATTTVTGGQTVMNPWPLIGGVAMAVVSEAEMVRPTGLLCAGDILVLTKPLGCQVAVNLKQWLLRPSPLYEEAIAGHISPEEIEELYNMATDSMRRLNREGARLMRKHGAHGATDVTGFGILGHANNFGAAQAVGDAPRSLCLVLERLPMFKTAVAASKQMNDKYRLLEGYSAETSGGLLVAFPSTTAAAAFCAELTAVDGGCPSWIVGHVEDRATNAVDGVYARLKDGYEIVEV
notes: selenophosphate synthetase SEPHS2 of Leishmania major, LmjF.36.5410, lacking the 69-residue N-terminal region; also called ΔN-LmSEPHS2
As for B3, the “stoichiometry N” value in series [1] is 2 and 4.

B4: ΔN(25)-TbSEPHS2, amino acid residues 26-393 (domain or fragment, Trypanosoma brucei, UniProt Q38A34 26-393, looked up)
chain: GLPEEFTLTDYTRLKGCSCKVPQPELLALLQSVSTTPGRRDVGMDCSIVKLQHKDETGKPLYMVSTTDFFFPSVEDPYLQGQIGAANVLSDLYSTGIDRCDTVLMLLAASTDMDKTEREVCTQEMMKGFVDHVRLAGSDVTGGQTVMNPWPLIGGIATSVVAESQMIRPTGLQPGDILVLTKPLGCQIAVNLKQWLRRPSPIFEEQIQGKMDSEEIEELYNAAADGMKRLNRMAAALMHSHGAHGATDVTGFGILGHAKNLGSAQKADVCLVLDSLPMYRGAVKASKLMGDKYRLFEGYAAETSGGLLVAFGTREEAEGYIRELYETDGEPAWVVGRVVRREGSAPYALLQKDYKIIEVGAKVNDKII
notes: selenophosphate synthetase SEPHS2 of Trypanosoma brucei, Tb927.10.9410, residues 26-393; Cloned into pET20b with the printed oligonucleotides
Consider B4, for which, in series [1], the “stoichiometry N” value is 2 and 4.

B5: Trypanosoma brucei selenophosphate synthetase (TbSEPHS2), recombinant full-length (enzyme, UniProt Q38A34 1-393, looked up)
chain: MSEKEGKVIPETNGMKRPRFDPVKLGLPEEFTLTDYTRLKGCSCKVPQPELLALLQSVSTTPGRRDVGMDCSIVKLQHKDETGKPLYMVSTTDFFFPSVEDPYLQGQIGAANVLSDLYSTGIDRCDTVLMLLAASTDMDKTEREVCTQEMMKGFVDHVRLAGSDVTGGQTVMNPWPLIGGIATSVVAESQMIRPTGLQPGDILVLTKPLGCQIAVNLKQWLRRPSPIFEEQIQGKMDSEEIEELYNAAADGMKRLNRMAAALMHSHGAHGATDVTGFGILGHAKNLGSAQKADVCLVLDSLPMYRGAVKASKLMGDKYRLFEGYAAETSGGLLVAFGTREEAEGYIRELYETDGEPAWVVGRVVRREGSAPYALLQKDYKIIEVGAKVNDKII
notes: selenophosphate synthetase SEPHS2 of Trypanosoma brucei, Tb927.10.9410, 393 residues (from the limits of the truncated constructs); also called SPS2; TbSPSH2
B5: the Kd in series [3] came to 5.2 µM.

The stoichiometry N is a count of units in the complex or per binding partner. As a reminder, the Kd is the free concentration of one partner at which half of the binding sites on the other are occupied at equilibrium, for simple one-to-one binding.
